In the nanobody polyreactivity screen of Harvey et al. (2022):

Test: yeast display, Sf9 membrane polyspecificity reagent, FACS + sequencing; frameworks hold sequencing errors
Summary of the method: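 Nanobodies came from a synthetic yeast display library in Saccharomyces cerevisiae BJ5465, induced with galactose for 36–48 hours and stained for 1 hour at 4 °C with 10% biotinylated, detergent-solubilized Sf9 membrane reagent. Cells were enriched on streptavidin microbeads and then FACS-sorted, with low and high (top ~1%) gates set on anti-HA fluorescence for expression and streptavidin fluorescence for reagent binding. Each polyreactivity label reflects the gate a clone came from. Genes were amplified by colony PCR, sequenced by MiSeq 2 × 250 and filtered by CDR length.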

Sequence	polyreactivity (PSR sort gate)
QVQLEESGGGLVQAGGSLRLSCAASGSIFPRFYAIGWYRQAPGKERELVAAISWRDGSTFYADSVKGRFTISRDNAKNTVYLQMNSLKPEDTGVYYCAAATYRYGYGYWGQGTQVTVSS	high polyreactivity
QVQLVESGGGLVQAGGSLRLSCAASGFTFVGNTMGWYRQAPGKERELVAAIRGRDGRTYYADSVKGRFTISRDNEKNTVYLQMNSLKPEDTAVYYCNVDVKYSVRSEFDYWGQGTQVTVSS	low polyreactivity
QVQLVESGGGLVQAGGSLRLSCAASGSTFVYYAMGWYRQAPGKERELVAAINRSGTRTYYADSVKGRFTISRDNAKNTVYLQMNSLKPEDTAVYYCAKAVQGKYGYWGQGTQVTVSS	high polyreactivity
QVQLVESGGGLVQAGGSLRLSCAASGIIFESYAMGWYRQAPGKERELVAAISWDGGSTYYADSVKGRFTISRDNAKNTVYLQMNSLKPEDTAVYYCAAESYGIYDGYDYWGQGTQVTVSS	high polyreactivity
QVQLVESGGGLVQAGGSLRLSCAASGSTFFSYAMGWYRQAPGKERELVAAITSNGGTTHYADSVKGRFTISRDNAKNTVYLQMNSLKPEDTADYYCAKAQGHVRGSRGLQGGRYDYWGQGTQVTVSS	low polyreactivity
QVQLVESGGGLVQAGGSLRLSCAASGITSQTYAMGWYRQAPGKERELVAGISASGGRTFYADSVKGRFTFSRDHAKNTVYLQMNSLKPEDTAVYYCNKLSSDSYNYWGQGTQVTVSS	high polyreactivity
QVQLVESGGGLVQAGGSLRLSCPASGFIIRLYVMGWYRQAPGKERELVAAISSGGRTYYADSVKGRFTISRDNAKNTVYLQMNSLKPEDTAVYYCAAYVRGWGCDDFWGQGSQVTVSS	high polyreactivity
QVQLVESGGGLVQAGGSLRLSCAASGRTSVIYAMGWYRPAPGKERELVAGISYRGTSTYYADSVKGRFTISRDNAKNTVYLLMNSLKPEDTAVYYCAAESYYKYFNNYDYWGQGTQVTVAS	high polyreactivity
QVQLVESGGGLVQAGGSLRLSCAASGSTYYYYMGWYRQAPGKERELVASISYTGSRTYYADSVKGRFTISRDNAKNTVYLQMNSLKPEDTAVYYCAAARSRARSYYYWGQGTQVTVSS	high polyreactivity
QVQLVESGGGLVQAGGSLRLSCAASGRTFVVYAMGWYRQAPGKERELVAVISFTGDSTFYADSVKGRFTISRDNGKNTVYLQMNSLKPEDTAVYYCAADFRRVFSKYSYYLYFDFDYWGQGTLVTVSS	low polyreactivity
QVQLVESGGGLVQAGGSLRLSCAASGRIFIYNAKGWYRQAPGKERELVAAITSDGTTNYADSVKGRFTISRDNAKNTVYLQMNSLKPEDTAVYYCAVDPFGSLVTYDYWGQGTQVTVSS	low polyreactivity
QVQLVESGGGLVQAGGSLRLSCAASGRTFPYYAMGWYRQAPGKERELVAAISKRGGTTYYADSVKGRFTISRDNAKNTVYLQMNSLKPEDTAVYYCAKDSAYGWVAYDYWGQGTQVTVSS	high polyreactivity
QFQLVESGGGLDQAGGSLRLSCAASGRTFCNNAMGSYRQAAGKETELFAAISVLGGSTYYADSVKGRFTISRDNAKYTVFLQMNSLKPEDTAVYYCATRSRGWIAPPWQGSDGLYYWGQGTQVTVSS	low polyreactivity
QVQLQESGGGLVQAGGSLRLSCAASGPISRRSTMGWYRQAPGKERELVTAITRGTNTNYADSVKGRFTISRDNAKNTEYLQMNSLKPEDTAVFYCAAYGVLKPSRGDAVFHRYWGQGTQVTVSS	low polyreactivity
QVQLVESWGGLVQAGGSLRLSCAASGRIINQYAMGWYRQAPGKERELVAAITLNGGSTYYADSVKGRFTISRDNAKNTVYLQMNSLKPEDTAVYYCNNRYTHYSRKGVSYPKYDYWGQGNQVTVSS	high polyreactivity
QVQLVESGGGIVQAGGSLRLSCAASGSTIDYNAMGWYRQARGQERELVAAITSGGSTSYADSVKGRFTISRENAKNTVYLQMNSLKPEDTAGYYCAVKRYWLWWYDYWGQGTQVTVSS	high polyreactivity
QVQLVESGGGLVQAGGSLRLSCAASGSTFYRNAMGWYRQAPGKEREFVATINRGGSTYYADSVKGRFTISRDNAKNTVYLQMNSLKPEDTAVYYCNAKYKQRHGYSAVTSYATYDYWGQGTQVTVSS	high polyreactivity
QVQLVESGGGLVQAGGSLRLSCAASGRIFYLYAMGWYRQAPGTEREFVASITVSGSSTYYADSVKGRFTISRDNAKNTVYLQMNSLKPEDTAVYYCNTDAVRSYVWWGTSLYDYWGQGTQVTVSS	low polyreactivity
QVKLKESVGGLVQAGGSLRLSCAASGSISATGNMGWYRQAPGEERELVAAINFGSNTYYADSVKGRFTISRDNAKNTVYLQKSGLKPEDTPVYYCAVDGCYVGPYYYWGQGTQVTVSS	high polyreactivity
QVQLVESGGGLVQAGGSLRLSCAASGLTFTRYAMGWYIQAPGKEREMVAAISKNGGSTYYADSVKGRFTISRDNAKNTVYLQMNSLKPEDTAVYYCAARRSTSYPAGYDYRGQGTQVTVSS	high polyreactivity
QVQLVESGGGLVQAGGSLRLSCAASGSTFGHYVMGWYRQATGKERELVAAISYNGGSTYYADSVKGRFTISRDNAKNTVYLQMNSLKPEDTAVYSCAARGSYSFYRRVDYWGQGTQVTVSS	high polyreactivity
QVQLVESGGGLVQAGGSLRLSCAASGFIFRYNPMGRYRHAPGKEREFVAAIDSGGSTYYADSVKGRFTISRDNAKNTVYLQMNSLKPEDTAVYYCNAVHEASYAGVDYWGQGTQVTVSS	low polyreactivity

Sequence	polyreactivity (PSR sort gate)
QVQLVESGGGLVQAGGSLRLSCAASGSIFYYYDMGWYRQAPGKERELVAAIRGSGGSTYYADSVKGRFTISRDNAKNTVYLQMNSLKPEDTAVYYCAAEFGDQRFYRQYVRRDHWGQGTQVTVSS	low polyreactivity
QVQLVESGGGLVQAGGSLRLSCAASGLIFYDNMGWYRQAPGKERELVAAISSSGGSTSYADSVKGRFTISRDNAKNTVYLQMNSLKPEDTAVYYCAADSYPAYLGFVGFDYWGQGTQVNVSS	low polyreactivity
QVQLVESGGGLVQAGGSLRLICAASGRTFSFYARVWYRQAPGKETEFVAAITGSGGSTYYADSVKGRFTISRDNAKNTVYLKMNSLKPEDTAVYYCAKRSAWHTYRYGYWGQGTQVTVSS	high polyreactivity
QVQLVESGGGLVQAGGSLRLSCAASGLIFAVYTMGWYRQAPGKERELVAAITRRSTRTYYADSVKGRFTISRDNAKNTVYLQMNSLKPEDTAVYYCAADRGSSGAAFEYWGQGTQVTVSS	low polyreactivity
QVQLVESGGGLVQAGGSLRLSCAASGFTFSWYAMGWYRQAPGKERELVAAINADGGTTYYADSVKGRFTISRDNAKNTVYLQMNRLKPEDTAVYYCAAELSVDKYDYWGQGTQVTVSS	low polyreactivity
QVQLVESGGGLVQAGGSLRLSCAASGLTFVPYAMGWSRQAPGNERELFAAITWSGGSTYYADSVKGRFTISRDNAKNTVYLQMNSLKQEDTAVYYCAADFLLSTSTEYYYWGHGTQVTVSS	high polyreactivity
QVQLVESGGGLVQAGGSLRLSCAASGFTFRYYAMGWYRQAPGKERELVAGITWSGTNTYYADSVKGRFTISRDNAKNTVYLQMNSLKPEDTAVYYCITSPYLHYYYWGQGTQVTVSS	high polyreactivity
QVQLVESGGGLVQAGGSLRLSCAASGSTFAKYAMGWYRQAPGKERELVASIRLSGGSTYYADSVKGRFTISRDNAKNTVYLQMNSLKPEDTALYYCHKQFATFFYGFDYYYWGQGTQVTVSS	low polyreactivity
QVQLVESGGGLVQAGGSLRLSCAASGRTFKIYTMGWYRPAPGKERELVAAISRGGSTYYADSVKGRFTISRDNAKNTVYLQMNSLKPEDTAVYYCAVDLYYLSSASTRQVRRDYWGQGTQVTVSS	high polyreactivity
QVQLVESGGGLVQAGGSLRLSCAASGSIFAYYAMGWYRQAPGKERELVAAITSGDSTYYADSVKGRFTISRDNAKNTVYLQMNSLKPEDSAVYYCAADVSWRSNWYDYWGQGTQVTVSS	low polyreactivity
QVQLVESGGGLVQAGGSLRLSCAASGSTFQLYAMGWYRQAPGKEREFVAAIRGRGGNTYADSVKGRFTISRDNAKNTVFLQMNSLKPEDTAVYYCAAPLLRDLRSPYSYNYWGQGTQVTVSS	low polyreactivity
QVQLVESGGGLVQAGGSLRLSCAASGRIFVLNAMGWYRQAPGKERELVAAITFSGGRTYYADSVKGRFTISRDNAKNTVYLQMNSLKPEDTAVYYCATRQDWRRTYGYWGQGTQVTVSS	low polyreactivity
QVQLVESGGGLVQAGGSLRLSCAASGSTFKHNTMGWYRQAPGKERELVAAITSSGGTYYADSVKGRFTISRDNAKNTVYLQMNSLKPEDTAVYYCAARVTYRGRAYDYWGQGTQVTVSS	high polyreactivity
QVQLVESGGGLVQAGGSLRLSCAASGFTFIYYAMGWYRQAPGKERELVAAISASGGSTYYADSVKGRFTISRDNAKNTVYLQMNSLKPEDTAVYYCAADALIYYKGSPDYYWGQGTQVTVSS	high polyreactivity
QVELVESGGGLVQAGGILRLSCAASGSTFSIYAMGWYRQGPGKERELVAAISGDGITKYADSVKGRFTISRDNAKNTVYLQMNSLKPEDTAVYYCNAHELTDDGKMDSWGQGTQVTVSS	low polyreactivity
QVQLVESGGGLVQAGGSLRLSCAASGFTFLKYAMGWYIQAPGKERELVARITSGGRTYYADSVKGRFTISRDNAKNTVYLQMNSLKPEDTAVYYCNAVKSYASLYAGFYYWGQGTQVTVSS	high polyreactivity
QVQLVESGGGLVQAGGSLRLSCAASGSIFPAYTMGWYRPAPGKERELVAAITRRGGSTYYADSVKGRFTISRDNSKNTVYLQMNSLKPEDTAVYYCAAGGLYTPYDYWGQGTQVTVSS	low polyreactivity
QVQLVESGGGLVQAGGSLRLTCAASGIIFLDYVMGWYRQAPGKERELVAAINSGGSTYYADSVKGRFTISRDNAKNTVYLQMNSLKPEDTAVYYCAAVDYYKFDYWGQVTQVTVSS	low polyreactivity
QVQLVESGGGLVQAGGSLRLSCAASGSTFPPNAMGWYRQAPGKERELVADSSDSSTYYADSVKGRFTISRDNAKNTVYLQMNSLKPEDTAVYYCAAADAGLRSKSYGQQYDYWGQGTQVTVSS	low polyreactivity
QVQLVESGGGLVQAGGSLRLSCAASGSTFSPYARGWYRQAPGKERELVANITISGGSTYYADSVKGRFTISRENAKNTVYFQMNSLKPEDTGVYYSNADSLIRWLFTVVIFDYWGQGTQVTVSS	low polyreactivity
QVQLVESGGGLVQAGGSLRLSCAASGRTFNVYAMGWYRQAPGKERELVAGISSSGGSTYYADSVKGRFTISRDNAKNTVYLQMNSLKPEDTAVYYCNTVYKYHGVRPYGYWGQGTQVTVSS	high polyreactivity
